From patent US20220372155A1 (LYVGEN BIOPHARMA, published 2022)
Blank lines part the entries; values can stand above or below the binder they belong to.

Target: T1, human CD40 expressed on CHO cells (human, UniProt P25942 21-277)
T1 construct: whole, on cells; also used for the reporter cells over-expressing human CD40; also called cellular CD40; CHO-CD40 cells
Experiment: FACS, CHO cells

T1 sequence (P25942 21-277): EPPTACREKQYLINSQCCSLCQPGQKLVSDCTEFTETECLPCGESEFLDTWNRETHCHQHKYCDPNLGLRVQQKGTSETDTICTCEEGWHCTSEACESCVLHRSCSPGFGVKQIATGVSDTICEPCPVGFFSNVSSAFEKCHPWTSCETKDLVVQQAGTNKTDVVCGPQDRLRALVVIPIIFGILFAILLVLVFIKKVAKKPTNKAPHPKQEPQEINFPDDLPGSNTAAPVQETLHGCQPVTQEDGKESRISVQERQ

binding result: binds
B1: TM377 (antibody, human IgG4 S228P, kappa, V domains shown)
VH: EVQILETGGGLVKPGGSLRLSCATSGFNFNDSFMNWVRQAPGKGLEWVAQIRNKNYNYATYYTESLEGRVTISRDDSKSRVYLQVSSLRAEDSAVYYCTSYYYDGFADYFDYWGQGVMVTVSS
VL: DIKMTQSPSFLSASVGDSVTFTCKASQNIYIYLNWYQQKFGEAPKLLIYNTNNLQTGIPSRFSGSESGTVFTLTISSLQPEDVATYFCLQHSSRRTFGGGTKLELKR
notes: chimeric: LYV377 VH/human IgG4, LYV377 VL/kappa; also called chimeric parent TM377

binding result: binds
B2: Ly464 (bispecific antibody, human IgG1, kappa)
heavy: QVQLKESGPGLVAPSQSLSITCTVSGFSLTDYGVRWIRQPPGKGLEWLGVIWGGGSTYYNSALKSRLSISKDNSKSQVFLKMNSLQTDDTAMYYCAKEKRRGYYYAMDYWGQGTSVTVSSASTKGPSVFPLAPSSKSTSGGTAALGCLVKDYFPEPVTVSWNSGALTSGVHTFPAVLQSSGLYSLSSVVTVPSSSLGTQTYICNVNHKPSNTKVDKKVEPKSCDKTHTCPPCPAPELLGPSVFLFPPKPKDTLMISRTPEVTCVVVDVSHEDPEVKFNWYVDGVEVHNAKTKPREEQYNSTYRVVSVLTVLHQDWLNGKEYKCKVSNKALPAPIEKTISKAKGQPREPQVYTLPPSREEMTKNQVSLTCLVKGFYPSDIAVEWESNGQPENNYKTTPPVLDSDGSFFLYSKLTVDKSRWQQGNVFSCSVMHEALHNHYTQKSLSLSPG
light: ENVLTQSPAIMSASPGEKVTMTCRASSSVSSSYLHWYQQKSGASPKLWIYSTSNLASGVPARFSGSGSGTSYSLTISSVEAEDAATYYCQQYSGYPLTFGGGTKLEIKRTVAAPSVFIFPPSDEQLKSGTASVVCLLNNFYPREAKVQWKVDNALQSGNSQESVTEQDSKDSTYSLSSTLTLSKADYEKHKVYACEVTHQGLSSPVTKSFNRGECGGGGSGGGGSGGGGSGGGGSDIQMTQSPSSLSASVGDRVTITCKASQNIYIYLNWYQQKPGKAPKLLIYNTNNLQTGVPSRFSGSGSGTDFTLTISSLQPEDFATYYCLQHSSRRTFGGGTKVEIKGGGGSGGGGSGGGGSGGGGSQVQLVESGGGLVQPGGSLKLSCATSGFNFNDYFMNWVRQASGKGLEWVGQIRNKNYNYATYYTESLEGRVTISRDDSKNTAYLQMNSLKTEDTAVYYCTSYYYDGFADYFDYWGQGTTVTVSS
notes: Ly368 HC + Ly368 LC-TM740 scFv VL-VH

binding result: binds
B3: Ly468 (bispecific antibody, human IgG1, kappa)
heavy: B2 heavy
light: ENVLTQSPAIMSASPGEKVTMTCRASSSVSSSYLHWYQQKSGASPKLWIYSTSNLASGVPARFSGSGSGTSYSLTISSVEAEDAATYYCQQYSGYPLTFGGGTKLEIKRTVAAPSVFIFPPSDEQLKSGTASVVCLLNNFYPREAKVQWKVDNALQSGNSQESVTEQDSKDSTYSLSSTLTLSKADYEKHKVYACEVTHQGLSSPVTKSFNRGECGGGGSGGGGSGGGGSGGGGSDIQMTQSPSSLSASVGDRVTITCLASEDISNDLAWYQQKPGKAPKLLIYFVDRLLDGVPSRFSGSGSGTDFTLTISSLQPEDFATYYCQQSYKYPPTFGQGTKLEIKGGGGSGGGGSGGGGSGGGGSEVQLVESGGGLVQPGGSLRLSCAASGFTFTNYGLHWVRQAPGKGLEWVSSISPSGGVTYYRDSVKGRFTISRDNSKNTLYLQMNSLRAEDTAVYYCAKPFLGWGGANWIAHWGQGTLVTVSS
notes: Ly368 HC + Ly368 LC-TM559 scFv VL-VH

binding result: binds
B4: Ly465 (bispecific antibody, human IgG1, kappa)
heavy: B2 heavy
light: ENVLTQSPAIMSASPGEKVTMTCRASSSVSSSYLHWYQQKSGASPKLWIYSTSNLASGVPARFSGSGSGTSYSLTISSVEAEDAATYYCQQYSGYPLTFGGGTKLEIKRTVAAPSVFIFPPSDEQLKSGTASVVCLLNNFYPREAKVQWKVDNALQSGNSQESVTEQDSKDSTYSLSSTLTLSKADYEKHKVYACEVTHQGLSSPVTKSFNRGECGGGGSGGGGSGGGGSGGGGSQVQLVESGGGLVQPGGSLKLSCATSGFNFNDYFMNWVRQASGKGLEWVGQIRNKNYNYATYYTESLEGRVTISRDDSKNTAYLQMNSLKTEDTAVYYCTSYYYDGFADYFDYWGQGTTVTVSSGGGGSGGGGSGGGGSGGGGSDIQMTQSPSSLSASVGDRVTITCKASQNIYIYLNWYQQKPGKAPKLLIYNTNNLQTGVPSRFSGSGSGTDFTLTISSLQPEDFATYYCLQHSSRRTFGGGTKVEIK
notes: Ly368 HC + Ly368 LC-TM740 scFv VH-VL

binding result: binds
B5: Ly469 (bispecific antibody, human IgG1, kappa)
heavy: B2 heavy
light: ENVLTQSPAIMSASPGEKVTMTCRASSSVSSSYLHWYQQKSGASPKLWIYSTSNLASGVPARFSGSGSGTSYSLTISSVEAEDAATYYCQQYSGYPLTFGGGTKLEIKRTVAAPSVFIFPPSDEQLKSGTASVVCLLNNFYPREAKVQWKVDNALQSGNSQESVTEQDSKDSTYSLSSTLTLSKADYEKHKVYACEVTHQGLSSPVTKSFNRGECGGGGSGGGGSGGGGSGGGGSEVQLVESGGGLVQPGGSLRLSCAASGFTFTNYGLHWVRQAPGKGLEWVSSISPSGGVTYYRDSVKGRFTISRDNSKNTLYLQMNSLRAEDTAVYYCAKPFLGWGGANWIAHWGQGTLVTVSSGGGGSGGGGSGGGGSGGGGSDIQMTQSPSSLSASVGDRVTITCLASEDISNDLAWYQQKPGKAPKLLIYFVDRLLDGVPSRFSGSGSGTDFTLTISSLQPEDFATYYCQQSYKYPPTFGQGTKLEIK
notes: Ly368 HC + Ly368 LC-TM559 scFv VH-VL

binding result: binds
B6: Ly463 (bispecific antibody, human IgG1, kappa)
heavy: QVQLKESGPGLVAPSQSLSITCTVSGFSLTDYGVRWIRQPPGKGLEWLGVIWGGGSTYYNSALKSRLSISKDNSKSQVFLKMNSLQTDDTAMYYCAKEKRRGYYYAMDYWGQGTSVTVSSASTKGPSVFPLAPSSKSTSGGTAALGCLVKDYFPEPVTVSWNSGALTSGVHTFPAVLQSSGLYSLSSVVTVPSSSLGTQTYICNVNHKPSNTKVDKKVEPKSCDKTHTCPPCPAPELLGPSVFLFPPKPKDTLMISRTPEVTCVVVDVSHEDPEVKFNWYVDGVEVHNAKTKPREEQYNSTYRVVSVLTVLHQDWLNGKEYKCKVSNKALPAPIEKTISKAKGQPREPQVYTLPPSREEMTKNQVSLTCLVKGFYPSDIAVEWESNGQPENNYKTTPPVLDSDGSFFLYSKLTVDKSRWQQGNVFSCSVMHEALHNHYTQKSLSLSPGGGGGSGGGGSGGGGSGGGGSQVQLVESGGGLVQPGGSLKLSCATSGFNFNDYFMNWVRQASGKGLEWVGQIRNKNYNYATYYTESLEGRVTISRDDSKNTAYLQMNSLKTEDTAVYYCTSYYYDGFADYFDYWGQGTTVTVSSGGGGSGGGGSGGGGSGGGGSDIQMTQSPSSLSASVGDRVTITCKASQNIYIYLNWYQQKPGKAPKLLIYNTNNLQTGVPSRFSGSGSGTDFTLTISSLQPEDFATYYCLQHSSRRTFGGGTKVEIK
light: ENVLTQSPAIMSASPGEKVTMTCRASSSVSSSYLHWYQQKSGASPKLWIYSTSNLASGVPARFSGSGSGTSYSLTISSVEAEDAATYYCQQYSGYPLTFGGGTKLEIKRTVAAPSVFIFPPSDEQLKSGTASVVCLLNNFYPREAKVQWKVDNALQSGNSQESVTEQDSKDSTYSLSSTLTLSKADYEKHKVYACEVTHQGLSSPVTKSFNRGEC
notes: Ly368 HC-TM740 scFv VH-VL + Ly368 LC

binding result: binds
B7: Ly467 (bispecific antibody, human IgG1, kappa)
heavy: QVQLKESGPGLVAPSQSLSITCTVSGFSLTDYGVRWIRQPPGKGLEWLGVIWGGGSTYYNSALKSRLSISKDNSKSQVFLKMNSLQTDDTAMYYCAKEKRRGYYYAMDYWGQGTSVTVSSASTKGPSVFPLAPSSKSTSGGTAALGCLVKDYFPEPVTVSWNSGALTSGVHTFPAVLQSSGLYSLSSVVTVPSSSLGTQTYICNVNHKPSNTKVDKKVEPKSCDKTHTCPPCPAPELLGPSVFLFPPKPKDTLMISRTPEVTCVVVDVSHEDPEVKFNWYVDGVEVHNAKTKPREEQYNSTYRVVSVLTVLHQDWLNGKEYKCKVSNKALPAPIEKTISKAKGQPREPQVYTLPPSREEMTKNQVSLTCLVKGFYPSDIAVEWESNGQPENNYKTTPPVLDSDGSFFLYSKLTVDKSRWQQGNVFSCSVMHEALHNHYTQKSLSLSPGGGGGSGGGGSGGGGSGGGGSEVQLVESGGGLVQPGGSLRLSCAASGFTFTNYGLHWVRQAPGKGLEWVSSISPSGGVTYYRDSVKGRFTISRDNSKNTLYLQMNSLRAEDTAVYYCAKPFLGWGGANWIAHWGQGTLVTVSSGGGGSGGGGSGGGGSGGGGSDIQMTQSPSSLSASVGDRVTITCLASEDISNDLAWYQQKPGKAPKLLIYFVDRLLDGVPSRFSGSGSGTDFTLTISSLQPEDFATYYCQQSYKYPPTFGQGTKLEIK
light: B6 light
notes: Ly368 HC-TM559 scFv VH-VL + Ly368 LC

binding result: binds
B8: Ly466 (bispecific antibody, human IgG1, kappa)
heavy: QVQLKESGPGLVAPSQSLSITCTVSGFSLTDYGVRWIRQPPGKGLEWLGVIWGGGSTYYNSALKSRLSISKDNSKSQVFLKMNSLQTDDTAMYYCAKEKRRGYYYAMDYWGQGTSVTVSSASTKGPSVFPLAPSSKSTSGGTAALGCLVKDYFPEPVTVSWNSGALTSGVHTFPAVLQSSGLYSLSSVVTVPSSSLGTQTYICNVNHKPSNTKVDKKVEPKSCDKTHTCPPCPAPELLGPSVFLFPPKPKDTLMISRTPEVTCVVVDVSHEDPEVKFNWYVDGVEVHNAKTKPREEQYNSTYRVVSVLTVLHQDWLNGKEYKCKVSNKALPAPIEKTISKAKGQPREPQVYTLPPSREEMTKNQVSLTCLVKGFYPSDIAVEWESNGQPENNYKTTPPVLDSDGSFFLYSKLTVDKSRWQQGNVFSCSVMHEALHNHYTQKSLSLSPGGGGGSGGGGSGGGGSGGGGSDIQMTQSPSSLSASVGDRVTITCLASEDISNDLAWYQQKPGKAPKLLIYFVDRLLDGVPSRFSGSGSGTDFTLTISSLQPEDFATYYCQQSYKYPPTFGQGTKLEIKGGGGSGGGGSGGGGSGGGGSEVQLVESGGGLVQPGGSLRLSCAASGFTFTNYGLHWVRQAPGKGLEWVSSISPSGGVTYYRDSVKGRFTISRDNSKNTLYLQMNSLRAEDTAVYYCAKPFLGWGGANWIAHWGQGTLVTVSS
light: B6 light
notes: Ly368 HC-TM559 scFv VL-VH + Ly368 LC
